The values that follow come from US20100316636A1.

Assay [1] deals with human IL-6 receptor on hIL-6-responsive cells (XG-1 myeloma line, HepG2 hepatoma line) (human) (UniProt P08887). The assay is described as follows: cell-based or functional assay.
In assay [2] the target is recombinant human IL-6R protein, monomeric form (human) (UniProt P08887). The assay is described as follows: Kinexa solution-phase competition immunoassay, monomer.
Assay [3] shares this target. The assay is described as follows: SPR (BIAcore), captured antibody, monomeric hIL-6R injected. In general terms: Surface plasmon resonance follows binding to a sensor surface in real time, without labels.
Assay [4] shares this target. The assay is described as follows: SPR (BIAcore), antibody captured on anti-mouse Fc, monomeric IL-6R 1.25-40 nM injected.
The target of assay [5] is recombinant monkey monomeric IL-6R protein (Macaca fascicularis, extracellular domain) (Macaca fascicularis). The assay is described as above.
In a further assay the target is hIL-6R-hFc (human) (UniProt P08887). The assay is described as follows: blocking immunoassay: 100 pM hIL-6R-hFc premixed with titrated antibody, free hIL-6R-hFc captured on coated hIL-6.

In general, Kd refers to the equilibrium constant for the complex coming apart. Broadly, the IC50 is the concentration that inhibits the measured activity by half.

Chain of recombinant human IL-6R protein, monomeric form (human) (P08887 20-358 limits assumed): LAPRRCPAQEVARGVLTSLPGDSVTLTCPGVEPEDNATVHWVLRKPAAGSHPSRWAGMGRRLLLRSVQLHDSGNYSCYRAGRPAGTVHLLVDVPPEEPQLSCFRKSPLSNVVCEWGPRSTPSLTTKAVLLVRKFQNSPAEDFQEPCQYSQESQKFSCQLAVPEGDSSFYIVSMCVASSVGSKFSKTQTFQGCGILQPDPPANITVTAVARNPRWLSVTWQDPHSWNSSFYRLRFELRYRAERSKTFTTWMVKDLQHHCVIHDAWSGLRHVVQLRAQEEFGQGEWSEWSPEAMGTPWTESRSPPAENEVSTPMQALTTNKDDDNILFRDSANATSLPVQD
Chain of human IL-6 receptor on hIL-6-responsive cells (XG-1 myeloma line, HepG2 hepatoma line) (human) (P08887 20-468): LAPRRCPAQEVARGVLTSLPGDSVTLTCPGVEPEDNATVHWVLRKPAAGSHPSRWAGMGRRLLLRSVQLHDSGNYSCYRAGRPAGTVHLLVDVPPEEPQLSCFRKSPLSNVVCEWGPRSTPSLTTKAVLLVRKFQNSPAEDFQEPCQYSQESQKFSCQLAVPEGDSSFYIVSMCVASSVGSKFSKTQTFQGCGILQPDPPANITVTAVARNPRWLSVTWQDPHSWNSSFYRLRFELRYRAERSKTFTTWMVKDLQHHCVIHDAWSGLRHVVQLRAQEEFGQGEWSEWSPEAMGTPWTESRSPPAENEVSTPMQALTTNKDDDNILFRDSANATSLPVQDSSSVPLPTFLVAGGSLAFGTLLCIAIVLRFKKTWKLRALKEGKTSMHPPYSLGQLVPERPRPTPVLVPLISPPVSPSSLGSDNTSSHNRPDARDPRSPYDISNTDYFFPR
Chain of recombinant monkey monomeric IL-6R protein (Macaca fascicularis, extracellular domain) (Macaca fascicularis) (P08887 other isoform, or with tags, fused parts or gaps): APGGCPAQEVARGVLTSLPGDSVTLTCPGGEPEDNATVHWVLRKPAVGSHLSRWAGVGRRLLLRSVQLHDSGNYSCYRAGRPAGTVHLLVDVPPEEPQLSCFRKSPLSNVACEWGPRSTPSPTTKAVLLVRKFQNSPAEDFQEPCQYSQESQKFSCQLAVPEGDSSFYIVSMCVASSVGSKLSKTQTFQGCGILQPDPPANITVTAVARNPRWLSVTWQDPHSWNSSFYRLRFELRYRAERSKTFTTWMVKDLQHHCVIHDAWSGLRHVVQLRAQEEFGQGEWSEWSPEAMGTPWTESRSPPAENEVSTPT
Chain of hIL-6R-hFc (human) (P08887 20-358): as the sequence (P08887 20-358 limits assumed) above

Consider “control: humanized monoclonal antibody to human IL-6R (U.S. Pat. No. 5,817,790 SEQ ID NO:69 and 71)”, for which the HepG2/Stat3 Luciferase activity IC50 in assay [1] came to 0.854 nM. Also, the XG-1 cell proliferation Inhibition IC50 in assay [1] is 1.5 nM. The Kd in assay [2] was 1.96 nM; in assay [3], 1.79 nM; in assay [4] it was 0.963 nM; in assay [5], 1.17 nM. This substance showed a half-inhibitory concentration (IC50) in the assay with hIL-6R-hFc (human) of 2.2 nM.
